Assay results: patent US11697680B2, “Anti-GP73 antibodies and immunoconjugates” (CUREAB GMBH, priority 2016, dated 2023)
“Also recorded” adds a separate entry of the source.

What was measured:
[1] = target: peptide AA 36-55 of GP73 (Homo sapiens, UniProt Q8NBJ4); test: pH dependent peptide ELISA; type: binding; settings: pH range of 7.4 to 5.4
Experimental: A peptide ELISA was performed to test for pH dependency of binding to peptide AA 36-55 of GP73.
ELISA was carried out in 96 well plates coated overnight with biotinylated peptide and blocked with 2% gelatine. Horse radish peroxidase labeled antibodies G2-1 (G2-1-HRP) or G2-2 (G2-2-HRP) were applied and incubated for 1.5 hours. For competition testing non labeled G2-1 or G2-2 was added at high concentration. For pH dependent binding the antibodies were applied in phosphate buffer pH 4.4, 5.4, 6.4 or 7.4. After extensive washing a chromogenic substrate (TMB Amersham) was added to detect peroxidase. The reaction was stopped and absorbance was read at 450 nm.

[2] = tested on: HuH7 cells; test: Internalization of pHrodo Green labeled antibodies after pre-incubation with conditioned media containing soluble GP73; type: cell-based, human; settings: 10 ug/ml pHrodo Green labeled antibody pre-incubated over night, 24 h at 37° C.
Experimental: Antibody internalization was measured by FACS using the pH-sensitive dye pHrodo Green coupled to each antibody. […] The internalization of G2-2 that binds to rGP73 is not altered as described in Example 6.
Labeled antibodies were purified by size exclusion (40K MWCO). A non binding Isotype Antibody that was not labeled with pHrodo® Green STP Ester (Iso.) was used as control for background fluorescence. 10 ug/ml of each antibody was pre-incubated over night at 4° C. with either fresh culture media or conditioned media. As conditioned media served either supernatant from HEK 293 or HEK 293 GP73-myc cells cultured for 72 hours, that was dialyzed (10 k MWCO) against 1 L fresh media each. To confirm the presence of secreted soluble GP73 after dialysis supernatants were analysed by Western Blot using an anti-myc antibody. 300 ul/well of each pre-incubated antibody was given to 0.6×10^6HuH7 cells growing in 24 well plates for 24 h at 37° C. and 5% CO2. Cells were washed and analysed by FACS.

[3] = tested on: HuH7 (human hepatocellular carcinoma); test: Cell viability / proliferation with PrestoBlue reagent; type: cell-based; settings: 0.125 mg/ml to 2 mg/ml, after 72 hrs
Experimental: FIG. 13A Proliferation of HuH7 cells (human hepatocellular carcinoma) after treatment with different antibodies. HuH7 cells were treated with G2-2, G2-2 plus Cetuximab, mG2-2, mG2-2 plus Cetuximab, Cetuximab or control antibody each in increasing concentrations from 0.125 mg/ml to 2 mg/ml. Proliferating cells were measured after 72 hrs. […] This effect was independent of the Fc part i.e. human IgG1 in G2-2 or murin IgG2a in mG2-2 as described in Example 8.
FIG. 13B Proliferation of HuH7 cells (human hepatocellular carcinoma), 4T1 cells (murin breast carcinoma) and CaCo2 cells (human colorectal carcinoma) after treatment with different antibodies. The three cell lines were treated with G2-1, G2-1 plus Cetuximab, Cetuximab, Bevacizumab or Bevacizumab plus Cetuximab 2 mg/ml total. Proliferating cells were measured after 72 hrs.
Cells from the cell lines HuH7 (human hepatocellular carcinoma), 4T1 (murin breast carcinoma) and CaCo2 (human colorectal carcinoma) were cultured under standard conditions in Dulbecco's modified Eagle Medium (DMEM) supplemented with 10% fetal calf serum (FCS) at 37° C. with 5% CO2. […] Fluorescence was read at 615 nm to quantify cell viability. […]
To test the effect of G2-1 on different cell lines, HuH7, 4T1 and CaCo2 cells were transferred to 96 well plates. […] Cell viability was quantified after 72 hours using PrestoBlue reagent and measuring the fluorescence at 615 nm.

Sequence of peptide AA 36-55 of GP73 (Q8NBJ4 36-55 limits assumed): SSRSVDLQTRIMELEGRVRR

B1: G2-2: scFv clone with human IgG1 heavy and human Igk light constant regions; VH/VL SEQ ID NO: 2 and 3; binds rGP73 AA 36-55 (antibody, V domains shown)
VH: EVQLLQSGGGVVQPGRSLRLSCAASGFTFSSYGMSWVRQAPGKGLEWVAVISYDGSNKYYADSVKGRFTISRDNSKNTLYLQMNSLRAEDTAVYYCAREGSAGMDVWGQGTTVTVSS
VL: DIQMTQPSSLSASPGASASLTCTLRSDISVGFHRIYWYQQKPGSPPQYLLRYKSDSDKQQGSGVPSRFSGSKDASANAGILLISGLQSDDEADYYCVIWHTSGVVFGGGTKVEIK
modifications: human IgG1 and Igk constant regions not cited; G2-2 heavy chain variable region (VH); G2-2 light chain variable region (VL)
For B1, which “pH dependency of binding to peptide AA 36-55 of GP73” value [1] is on record?
The value was “Stable binding”.

What about the “effect of conditioned media containing soluble GP73 on antibody internalization / cell surface binding” value [2] of the same molecule?
Its value is “unaffected; also recorded: not altered”.

What about the “cell proliferation / cell viability” value [3] of the same molecule?
Its value is “reduced depending on antibody concentration”.
